Measured values: patent US20240117018A1

Columns and labels:
Assay in all cases: cell-based or functional assay
[1] = biological target: HIV-1 Env of pseudovirus 191084 B7-19 (HIV-1)
[2] = biological target: HIV-1 Env of pseudovirus 191955_A11 (HIV-1)
[3] = biological target: HIV-1 Env of pseudovirus 263-8 (HIV-1)
[4] = biological target: HIV-1 Env of pseudovirus 9004SS_A3_4 (HIV-1)
[5] = biological target: HIV-1 Env of pseudovirus 928-28 (HIV-1)
[6] = biological target: HIV-1 Env of pseudovirus 0815.v3.c3 (HIV-1)
[7] = biological target: HIV-1 Env of pseudovirus 211-9 (HIV-1)
[8] = biological target: HIV-1 Env of pseudovirus 231966.c02 (HIV-1)
[9] = biological target: HIV-1 Env of pseudovirus 235-47 (HIV-1)
[10] = biological target: HIV-1 Env of pseudovirus 3016.v5.c45 (HIV-1)
[11] = biological target: HIV-1 Env of pseudovirus 3301.v1.c24 (HIV-1)
[12] = biological target: HIV-1 Env of pseudovirus 3817.v2.c59 (HIV-1)
[13] = biological target: HIV-1 Env of pseudovirus 620345.c01 (HIV-1)
[14] = biological target: HIV-1 Env of pseudovirus 6540.v4.c1 (HIV-1)
[15] = biological target: HIV-1 Env of pseudovirus 6545.v4.c1 (HIV-1)
[16] = biological target: HIV-1 Env of pseudovirus 6811.v7.c18 (HIV-1)
[17] = biological target: HIV-1 Env of pseudovirus 89-F1_2_25 (HIV-1)
[18] = biological target: HIV-1 Env of pseudovirus A07412M1.vrc12 (HIV-1)
[19] = biological target: HIV-1 Env of pseudovirus BJOX010000.06.2 (HIV-1)
[20] = biological target: HIV-1 Env of pseudovirus BJOX015000.11.5 (HIV-1)
[21] = biological target: HIV-1 Env of pseudovirus BJOX025000.01.1 (HIV-1)
[22] = biological target: HIV-1 Env of pseudovirus BJOX028000.10.3 (HIV-1)
[23] = biological target: HIV-1 Env of pseudovirus C1080.c03 (HIV-1)
[24] = biological target: HIV-1 Env of pseudovirus C4118.c09 (HIV-1)
[25] = biological target: HIV-1 Env of pseudovirus P0402_c2_11 (HIV-1)
[26] = biological target: HIV-1 Env of pseudovirus P1981_C5_3 (HIV-1)
[27] = biological target: HIV-1 Env of pseudovirus R1166.c01 (HIV-1)
[28] = biological target: HIV-1 Env of pseudovirus R2184.c04 (HIV-1)
[29] = biological target: HIV-1 Env of pseudovirus R3265.c06 (HIV-1)
[30] = biological target: HIV-1 Env of pseudovirus T251-18 (HIV-1)
[31] = biological target: HIV-1 Env of pseudovirus T255-34 (HIV-1)
[32] = biological target: HIV-1 Env of pseudovirus X1193_c1 (HIV-1)
[33] = biological target: HIV-1 Env of pseudovirus X1254_c3 (HIV-1)
[34] = biological target: HIV-1 Env of pseudovirus X1632_S2_B10 (HIV-1)
[35] = biological target: HIV-1 Env of pseudovirus X2131_C1_B5 (HIV-1)
[36] = biological target: HIV-1 Env of pseudovirus 6480.v4.c25 (HIV-1)

## NIH 45-46 (antibody)
[1]
  IC50: 0.02 µg/mL
  IC80: 0.07 µg/mL
[2]
  IC50: 0.11 µg/mL
  IC80: 0.43 µg/mL
[3]
  IC50: 0.05 µg/mL
  IC80: 0.1 µg/mL
[4]
  IC50: 0.18 µg/mL
  IC80: 0.65 µg/mL
[5]
  IC50: 0.1 µg/mL
  IC80: 0.39 µg/mL

## PGT151 (antibody)
[6]
  IC50 (Titer in TZM.bl cells): > 50 µg/mL
  IC80 (Titer in TZM.bl cells): > 50 µg/mL
[1]
  neutralization IC50: 0.004 µg/mL
  neutralization IC80: 0.016 µg/mL
[2]
  neutralization IC50: 0.004 µg/mL
  neutralization IC80: 0.014 µg/mL
[7]
  IC50 (Titer in TZM.bl cells): 0.002 µg/mL
  IC80 (Titer in TZM.bl cells): 0.01 µg/mL
[8]
  IC50 (Titer in TZM.bl cells): 0.025 µg/mL
  IC80 (Titer in TZM.bl cells): 0.183 µg/mL
[9]
  IC50 (Titer in TZM.bl cells): 38.1 µg/mL
  IC80 (Titer in TZM.bl cells): > 50 µg/mL
[3]
  neutralization IC50: > 50 µg/mL
  neutralization IC80: > 50 µg/mL
[10]
  IC50 (Titer in TZM.bl cells): 0.174 µg/mL
  IC80 (Titer in TZM.bl cells): 40.7 µg/mL
[11]
  IC50 (Titer in TZM.bl cells): 0.002 µg/mL
  IC80 (Titer in TZM.bl cells): 0.019 µg/mL
[12]
  IC50 (Titer in TZM.bl cells): > 50 µg/mL
  IC80 (Titer in TZM.bl cells): > 50 µg/mL
[13]
  IC50 (Titer in TZM.bl cells): > 50 µg/mL
  IC80 (Titer in TZM.bl cells): > 50 µg/mL
[14]
  IC50 (Titer in TZM.bl cells): 0.006 µg/mL
  IC80 (Titer in TZM.bl cells): 0.03 µg/mL
[15]
  IC50 (Titer in TZM.bl cells): 0.004 µg/mL
  IC80 (Titer in TZM.bl cells): 0.026 µg/mL
[16]
  IC50 (Titer in TZM.bl cells): > 50 µg/mL
  IC80 (Titer in TZM.bl cells): > 50 µg/mL
[17]
  IC50 (Titer in TZM.bl cells): 22.9 µg/mL
  IC80 (Titer in TZM.bl cells): > 50 µg/mL
[4]
  neutralization IC50: 0.003 µg/mL
  neutralization IC80: 0.015 µg/mL
[5]
  neutralization IC50: > 50 µg/mL
  neutralization IC80: > 50 µg/mL
[18]
  IC50 (Titer in TZM.bl cells): 0.246 µg/mL
  IC80 (Titer in TZM.bl cells): > 50 µg/mL
[19]
  IC50 (Titer in TZM.bl cells): > 50 µg/mL
  IC80 (Titer in TZM.bl cells): > 50 µg/mL
[20]
  IC50 (Titer in TZM.bl cells): > 50 µg/mL
  IC80 (Titer in TZM.bl cells): > 50 µg/mL
[21]
  IC50 (Titer in TZM.bl cells): > 50 µg/mL
  IC80 (Titer in TZM.bl cells): > 50 µg/mL
[22]
  IC50 (Titer in TZM.bl cells): > 50 µg/mL
  IC80 (Titer in TZM.bl cells): > 50 µg/mL
[23]
  IC50 (Titer in TZM.bl cells): > 50 µg/mL
  IC80 (Titer in TZM.bl cells): > 50 µg/mL
[24]
  IC50 (Titer in TZM.bl cells): > 50 µg/mL
  IC80 (Titer in TZM.bl cells): > 50 µg/mL
[25]
  IC50 (Titer in TZM.bl cells): < 0.001 µg/mL
  IC80 (Titer in TZM.bl cells): 0.004 µg/mL
[26]
  IC50 (Titer in TZM.bl cells): 0.021 µg/mL
  IC80 (Titer in TZM.bl cells): > 50 µg/mL
[27]
  IC50 (Titer in TZM.bl cells): > 50 µg/mL
  IC80 (Titer in TZM.bl cells): > 50 µg/mL
[28]
  IC50 (Titer in TZM.bl cells): > 50 µg/mL
  IC80 (Titer in TZM.bl cells): > 50 µg/mL
[29]
  IC50 (Titer in TZM.bl cells): > 50 µg/mL
  IC80 (Titer in TZM.bl cells): > 50 µg/mL
[30]
  IC50 (Titer in TZM.bl cells): 0.327 µg/mL
  IC80 (Titer in TZM.bl cells): > 50 µg/mL
[31]
  IC50 (Titer in TZM.bl cells): 0.002 µg/mL
  IC80 (Titer in TZM.bl cells): 0.01 µg/mL
[32]
  IC50 (Titer in TZM.bl cells): 0.004 µg/mL
  IC80 (Titer in TZM.bl cells): 0.027 µg/mL
[33]
  IC50 (Titer in TZM.bl cells): 0.309 µg/mL
  IC80 (Titer in TZM.bl cells): > 50 µg/mL
[34]
  IC50 (Titer in TZM.bl cells): 0.061 µg/mL
  IC80 (Titer in TZM.bl cells): > 50 µg/mL
[35]
  IC50 (Titer in TZM.bl cells): 0.007 µg/mL
  IC80 (Titer in TZM.bl cells): 0.036 µg/mL

## 8ANC195 (antibody)
[1]
  IC50: > 50 µg/mL
  IC80: > 50 µg/mL
[2]
  IC50: > 50 µg/mL
  IC80: > 50 µg/mL
[3]
  IC50: > 50 µg/mL
  IC80: > 50 µg/mL
[4]
  IC50: 0.17 µg/mL
  IC80: 0.81 µg/mL
[5]
  IC50: > 50 µg/mL
  IC80: > 50 µg/mL

## 10-1074 (antibody)
[6]
  IC50 neutralization (TZM.bl): 0.03 µg/mL
  IC80 neutralization (TZM.bl): 0.138 µg/mL
[7]
  IC50 neutralization (TZM.bl): 0.112 µg/mL
  IC80 neutralization (TZM.bl): 0.425 µg/mL
[8]
  IC50 neutralization (TZM.bl): > 50 µg/mL
  IC80 neutralization (TZM.bl): > 50 µg/mL
[9]
  IC50 neutralization (TZM.bl): 0.05 µg/mL
  IC80 neutralization (TZM.bl): 0.163 µg/mL
[10]
  IC50 neutralization (TZM.bl): > 50 µg/mL
  IC80 neutralization (TZM.bl): > 50 µg/mL
[11]
  IC50 neutralization (TZM.bl): 0.013 µg/mL
  IC80 neutralization (TZM.bl): 0.042 µg/mL
[12]
  IC50 neutralization (TZM.bl): 3.15 µg/mL
  IC80 neutralization (TZM.bl): 14.9 µg/mL
[13]
  IC50 neutralization (TZM.bl): > 50 µg/mL
  IC80 neutralization (TZM.bl): > 50 µg/mL
[36]
  IC50 neutralization (TZM.bl): 0.009 µg/mL
  IC80 neutralization (TZM.bl): 0.041 µg/mL
[14]
  IC50 neutralization (TZM.bl): > 50 µg/mL
  IC80 neutralization (TZM.bl): > 50 µg/mL
[15]
  IC50 neutralization (TZM.bl): > 50 µg/mL
  IC80 neutralization (TZM.bl): > 50 µg/mL
[16]
  IC50 neutralization (TZM.bl): 0.002 µg/mL
  IC80 neutralization (TZM.bl): 0.01 µg/mL
[17]
  IC50 neutralization (TZM.bl): > 50 µg/mL
  IC80 neutralization (TZM.bl): > 50 µg/mL
[18]
  IC50 neutralization (TZM.bl): < 0.001 µg/mL
  IC80 neutralization (TZM.bl): 0.048 µg/mL
[19]
  IC50 neutralization (TZM.bl): > 50 µg/mL
  IC80 neutralization (TZM.bl): > 50 µg/mL
[20]
  IC50 neutralization (TZM.bl): > 50 µg/mL
  IC80 neutralization (TZM.bl): > 50 µg/mL
[21]
  IC50 neutralization (TZM.bl): > 50 µg/mL
  IC80 neutralization (TZM.bl): > 50 µg/mL
[22]
  IC50 neutralization (TZM.bl): > 50 µg/mL
  IC80 neutralization (TZM.bl): > 50 µg/mL
[23]
  IC50 neutralization (TZM.bl): > 50 µg/mL
  IC80 neutralization (TZM.bl): > 50 µg/mL
[24]
  IC50 neutralization (TZM.bl): > 50 µg/mL
  IC80 neutralization (TZM.bl): > 50 µg/mL
[25]
  IC50 neutralization (TZM.bl): 0.012 µg/mL
  IC80 neutralization (TZM.bl): 0.039 µg/mL
[26]
  IC50 neutralization (TZM.bl): 0.005 µg/mL
  IC80 neutralization (TZM.bl): 0.017 µg/mL
[27]
  IC50 neutralization (TZM.bl): > 50 µg/mL
  IC80 neutralization (TZM.bl): > 50 µg/mL
[28]
  IC50 neutralization (TZM.bl): > 50 µg/mL
  IC80 neutralization (TZM.bl): > 50 µg/mL
[30]
  IC50 neutralization (TZM.bl): 1.08 µg/mL
  IC80 neutralization (TZM.bl): 7.39 µg/mL
[31]
  IC50 neutralization (TZM.bl): > 50 µg/mL
  IC80 neutralization (TZM.bl): > 50 µg/mL
[32]
  IC50 neutralization (TZM.bl): 0.083 µg/mL
  IC80 neutralization (TZM.bl): 0.475 µg/mL
[33]
  IC50 neutralization (TZM.bl): 0.089 µg/mL
  IC80 neutralization (TZM.bl): 0.297 µg/mL
[34]
  IC50 neutralization (TZM.bl): > 50 µg/mL
  IC80 neutralization (TZM.bl): > 50 µg/mL
[35]
  IC50 neutralization (TZM.bl): 0.016 µg/mL
  IC80 neutralization (TZM.bl): 0.064 µg/mL

## 3BNC117 (antibody)
[1]
  IC50: 0.07 µg/mL
  IC80: 0.23 µg/mL
[2]
  IC50: > 50 µg/mL
  IC80: > 50 µg/mL
[3]
  IC50: 0.005 µg/mL
  IC80: 0.04 µg/mL
[4]
  IC50: 0.07 µg/mL
  IC80: 0.18 µg/mL
[5]
  IC50: 0.15 µg/mL
  IC80: 0.55 µg/mL

## VRC07 (antibody)
[1]
  IC50: 0.061 µg/mL
  IC80: 0.209 µg/mL
[2]
  IC50: 0.978 µg/mL
  IC80: 4.82 µg/mL
[3]
  IC50: 0.103 µg/mL
  IC80: 0.282 µg/mL
[4]
  IC50: 0.218 µg/mL
  IC80: 0.75 µg/mL
[5]
  IC50: 0.278 µg/mL
  IC80: 0.957 µg/mL
